In publication PMC8213764, “Human intelectin-1 (ITLN1) genetic variation and intestinal expression” (Scientific Reports, 2021):
“And” between values parts separate entries of the source, which are not always exact repeats. Identical values can stand only once.

B1: Human intelectin-1 (ITLN1) V109, from V109 homozygote (VV) ileal specimens (natural protein, human (endogenous in ileum), UniProt Q8WWA0 19-298, looked up)
chain: TDEANTYFKEWTCSSSPSLPRSCKEIKDECPSAFDGLYFLRTENGVIYQTFCDMTSGGGGWTLVASVHENDMRGKCTVGDRWSSQQGSKAVYPEGDGNWANYNTFGSAEAATSDDYKNPGYYDIQAKDLGIWHVPNKSPMQHWRNSSLLRYRTDTGFLQTLGHNLFGIYQKYPVKYGEGKCWTDNGPVIPVVYDFGDAQKTASYYSPYGQREFTAGFVQFRVFNNERAANALCAGMRVTGCNTEHHCIGGGGYFPEASPQQCGDFSGFDWSGYGTHVGYS
modifications: single glycosylation site at N163
notes: Human intelectin-1 (ITLN1) with valine at position 109 (rs2274907 A allele), endogenous in ileal mucosa; also called VV genotype; V109-ITLN1; source: endogenous, ileal specimens of V109 homozygote individuals, in lysate
B2: Human intelectin-1 (ITLN1) D109, from D109 homozygote (DD) ileal specimens (natural protein, human (endogenous in ileum), UniProt Q8WWA0 19-298, looked up)
chain: TDEANTYFKEWTCSSSPSLPRSCKEIKDECPSAFDGLYFLRTENGVIYQTFCDMTSGGGGWTLVASVHENDMRGKCTVGDRWSSQQGSKADYPEGDGNWANYNTFGSAEAATSDDYKNPGYYDIQAKDLGIWHVPNKSPMQHWRNSSLLRYRTDTGFLQTLGHNLFGIYQKYPVKYGEGKCWTDNGPVIPVVYDFGDAQKTASYYSPYGQREFTAGFVQFRVFNNERAANALCAGMRVTGCNTEHHCIGGGGYFPEASPQQCGDFSGFDWSGYGTHVGYS
modifications: single glycosylation site at N163
notes: Human intelectin-1 (ITLN1), natural missense variant rs2274907 (T allele) with aspartic acid at position 109, endogenous in ileal mucosa; Natural allele (rs2274907 T); also called DD genotype; D109-ITLN1; source: endogenous, ileal specimens of D109 homozygote individuals, in lysate

Target: the molecule itself
Assay: non-reducing SDS-PAGE immunoblot; human ileal lysates (150 mM NaCl, 1% Triton X-100, 0.5% sodium deoxycholate, 0.1% SDS, 50 mM Tris pH 8.0), heated at 95 °C for 30 min without 2-mercaptoethanol, gradient SDS-PAGE (4-20%), immunoblot; oligomers stable under denaturing conditions

| Protein | stoichiometry N |
| --- | --- |
| B1 | 3 and 6 |
| B2 | 3 and 6 |
